Reference: publication PMC7020254

Columns and labels:
P00451 [1] = test: AUC; sedimentation velocity, 105,000 g, 20 C, A280; Helixate desalted into HBS/Ca/PS-80, treated 10 min with 80 uM ClO- or control buffer, exchanged into HBS/Ca/PS-80; c(s) 0-100 S; aggregates 12-100 S relative to 5-100 S
P00451 [2] = test: AUC; sedimentation velocity, 105,000 g, 20 C, A280; Helixate in 2x formulation buffer treated with 80 uM ClO- or control buffer, then buffer exchange on a desalting column; c(s) 0-100 S; aggregates 12-100 S relative to 5-100 S
P00451 [3] = test: AUC; sedimentation velocity, 105,000 g, 20 C, A280; Helixate in its therapeutic formulation buffer; c(s) 0-200 S; aggregates integrated 15-100 S
P00451 [4] = test: AUC; sedimentation velocity, 105,000 g, 20 C, A280; Helixate exchanged into HBS/Ca/PS-80 and immediately run; c(s) 0-200 S; aggregates integrated 12-100 S

Substance	percent of signal in aggregates (12-100 S relative to 5-100 S) (P00451 [1])	percent of signal in aggregates (12-100 S relative to 5-100 S) (P00451 [2])	percent of signal in aggregates (15-100 S) (P00451 [3])	percent of signal in aggregates (12-100 S) (P00451 [4])
Helixate FS (recombinant full-length factor VIII) oxidized with 80 uM ClO-	13.4 and 13.3% of the signal	14.5 and 9.2%		
Helixate FS (recombinant full-length factor VIII), non-oxidized	13.4 and 13.3% of the signal	14.5 and 9.2%	18.9% and 15.9%	18.9% and 15.9%
